Laboratory results from patent US11793905B2, “Dressing” (University of Birmingham, priority 2015, dated 2023).

Tested on: MFs
Assay: Sirius red assay of collagen deposition from MFs under decorin-containing gellan membranes
Type: cell-based
Conditions: MFs with TGF-β1 added to produce excess collagen; 12 day period; Sirius red dye read at 550 nm; compared to non-treated samples
Protocol: FIG. 4—MFs were cultured in 6-well plates and left to attach overnight. After overnight attachment TGF-β1 was added to the cells to produces excess collagen. Decorin containing membranes were placed on top of the cultures and collagen production was observed using the Sirius Red assay over time.
FIG. 5: For quantifying the amount of Sirius red dye bound to collagen in the cultures the Sirius red was dissolved with 0.1N sodium hydroxide and left on a shaker for 30 min at room temperature. The dissolved dye was measured colourimetrically using a plate reader at 550 nm

B1: decorin (protein, UniProt P07585 31-359, looked up)
Decorin: DEASGIGPEVPDDRDFEPSLGPVCPFRCQCHLRVVQCSDLGLDKVPKDLPPDTTLLDLQNNKITEIKDGDFKNLKNLHALILVNNKISKVSPGAFTPLVKLERLYLSKNQLKELPEKMPKTLQELRAHENEITKVRKVTFNGLNQMIVIELGTNPLKSSGIENGAFQGMKKLSYIRIADTNITSIPQGLPPSLTELHLDGNKISRVDAASLKGLNNLAKLGLSFNSISAVDNGSLANTPHLRELHLDNNKLTRVPGGLAEHKYIQVVYLHNNNISVVGSSDFCPPGHNTKKASYSGVSLFSNPVQYWEIQPSTFRCVYVRSAIQLGNYK
notes: secreted 45 kDA proteoglycan with a core protein comprising primarily leucine-rich repeats; antifibrotic agent
amount of collagen deposited: significantly reduces the amount of collagen deposited
